Test results from the supplement of paper PMC12764529.
± gives the half width of the 95% confidence interval.

Tests used:
[1] = folding stability dG unfold from trypsin proteolysis; higher = more stable
Outline: (§1)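 Digests were run with trypsin and chymotrypsin at 11 concentrations in threefold dilutions, plus a no-protease condition, on designed mini-proteins in a PA-tagged cDNA display construct. The mini-proteins were under 80 residues, had no cysteine, and were kept only when AlphaFold2 dimer inter-PAE was above 15. After sequencing, Bayesian fitting of the counts gave K50, from which unfolding free energy was derived against a sequence-predicted unfolded-state K50 and a shared folded-state K50, per protease or combined.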

[2] = folding stability dG unfold from chymotrypsin proteolysis; higher = more stable
Outline: as §1

[3] = folding stability dG unfold (combined trypsin and chymotrypsin); higher = more stable
Outline: as §1

| Sequence | folding stability dG unfold [1] [kcal/mol] | folding stability dG unfold [2] [kcal/mol] | folding stability dG unfold [3] [kcal/mol] |
| --- | --- | --- | --- |
| SAGGSAGGMIKITITVPPGVSPEFVREKIAPLGVEVLSVEPLPDGTHRVTIEIPPEITKNPELLSAGGSAGG [r6_470_JUSTAS] | 1.68 ± 0.051 | 1.18 ± 0.023 | 1.42 ± 0.044 |
| SAGGSAGGMIREIEVKVSPEFPSVEEVVEELKAKGYEVKRIEEDPETDEVIVYVVKKVPEEEHHSAGGSAGG [r6_604_JUSTAS] | 1.05 ± 0.068 | 1.04 ± 0.17 | 1.08 ± 0.12 |
| SAGGSAGGMIVTTTFLPGNLKVVNVTTTYETTDPSGTTTSTTTTSTTIEYIPPVPVDINNPLLISAGGSAGG [r6_920_JUSTAS] | 1.41 ± 0.071 | 1.24 ± 0.038 | 1.41 ± 0.14 |
| SAGGSAGGMIYADNPEEFKKVVKELLKKHPKNKPVFAVLTGSNSKYVIYLSGDKLEKVLAFPVPSAGGSAGG [r6_288_TrMRF] | 0.961 ± 0.028 | 1.62 ± 0.051 | 1.38 ± 0.052 |
| SAGGSAGGMKATFHPGPGRFPLGDKEYEVDLIYVTVTLPNGVPRVFVLTPDEVEELLPDLELEGSAGGSAGG [r6_561_TrMRF] | 0.338 ± 0.07 | 1.04 ± 0.071 | 0.794 ± 0.098 |
| SAGGSAGGMKEGETRTITFWANVKPGDLEKIANHMMKFGWPIKKVDIKRHPENGMVRVSITIRKSAGGSAGG [r6_514_TrROS] | 2.21 ± 0.025 | 2.56 ± 0.045 | 2.43 ± 0.052 |
| SAGGSAGGMKEVIEAALKDGSKEFYAPGFSPDKVYDVKITVYPGEGKVEIEVEGKRFTVSPEDLSAGGSAGG [r6_749_TrMRF] | 1.48 ± 0.14 | 0.765 ± 0.18 | 1.11 ± 0.23 |
| SAGGSAGGMKITKIESVEPNPENGMVSLEMKIENGASILIHYNPDNGKVTIMVFKPNEIEPIELSAGGSAGG [r6_796_TrROS] | 1.26 ± 0.092 | 1.91 ± 0.072 | 1.76 ± 0.089 |
| SAGGSAGGMKITVEEDPATNRLTITIEVDGHTVTIVYDKDNPNKITVTVSPNMTKDEILKALKSSAGGSAGG [r6_195_TrROS_Hall] | 1.67 ± 0.052 | 2.43 ± 0.034 | 2.17 ± 0.095 |
| SAGGSAGGMKKYKMTITFKTPDGTPVKEKTIYFNSEEEAKKAAEEIKKKELEPDTPVTVSKEPDSAGGSAGG [r6_286_JUSTAS] | 0.425 ± 0.05 | 1.13 ± 0.071 | 0.898 ± 0.069 |
| SAGGSAGGMKLLKVVVERKDGSKRELEIPEELLVELGRPPTPEEIAKLLGIKPEDIVRVEIEDVSAGGSAGG [r6_166_TrMRF] | 3.65 ± 0.15 | 4.87 ± 0.21 | 4.74 ± 0.2 |
| SAGGSAGGMKTVEIEVTVKTPDGKEVKIKKARIEYDKETKTFHLYFENEETGEWYEVDEIKLKDSAGGSAGG [r6_329_TrROS_Hall] | 1.96 ± 0.085 | 2.69 ± 0.18 | 2.71 ± 0.2 |
| SAGGSAGGMKVVVKFTVRPRDPDTDEAVPAELVLEFDSLEEALAAAEELAALPEGTEIEIEVLTSAGGSAGG [r6_999_TrMRF] | 2.2 ± 0.058 | 1.76 ± 0.031 | 1.96 ± 0.088 |
| SAGGSAGGMKYTTTTETSVVEVRTDPKTGTTTRLERVTVTTVDSSGNVLSTTETLEERVDPVPASAGGSAGG [r6_181_JUSTAS] | 2.1 ± 0.059 | 2.163 ± 0.0081 | 2.15 ± 0.039 |
| SAGGSAGGMKYVVTVELPETGTTRTLTIPDNYTGEENVKKAVEEEAKKLGYSISKIEITKINDKSAGGSAGG [r6_718_JUSTAS] | 0.367 ± 0.086 | 0.654 ± 0.14 | 0.536 ± 0.12 |
| SAGGSAGGMLEIEFEKPLPNGETLKIKVFFDKDKPEALVEIENPSTNEKKFYNFTSIDEVIEKESAGGSAGG [r6_464_TrMRF] | 1.03 ± 0.048 | 1.7 ± 0.2 | 1.49 ± 0.24 |
| SAGGSAGGMNIQILKVDPDNGTITLAIPVDNWIVAISIKIRPDPNNPGMFKLDIDIHWFPADDISAGGSAGG [r6_372_TrROS] | 3.77 ± 0.14 | 4.44 ± 0.11 | 4.28 ± 0.091 |
| SAGGSAGGMNPTVTPVEVDVGDKPLTVFLFGDGTALVLFPDGGLAGAPVGTPDDRPVNLAIIGPSAGGSAGG [r6_239_TrMRF] | 0.887 ± 0.037 | 0.955 ± 0.053 | 0.927 ± 0.073 |
| SAGGSAGGMPLLALSYPVLKDGKLYRVLFLYSPDGTFLGPFYVSADLTEDIPPDTVVLVHPDALSAGGSAGG [r6_33_TrMRF] | 3.24 ± 0.09 | 3.523 ± 0.03 | 3.55 ± 0.1 |
| SAGGSAGGMPPVSLPETPVTITDPATGKPRLVTVLAAAPDGTLTVRFPDGSEVTVAGEPLLELESAGGSAGG [r6_435_JUSTAS] | 0.446 ± 0.042 | 1.05 ± 0.019 | 0.878 ± 0.051 |
| SAGGSAGGMPVEIEILTPDNLLPTFTIPDPEEAEKIKSVEVFGDRFIKITLGDKEIVIEVYPDNSAGGSAGG [r6_206_TrMRF] | 1.48 ± 0.061 | 0.559 ± 0.063 | 1.01 ± 0.12 |

| Sequence | folding stability dG unfold [1] [kcal/mol] | folding stability dG unfold [2] [kcal/mol] | folding stability dG unfold [3] [kcal/mol] |
| --- | --- | --- | --- |
| SAGGSAGGMSPDAKPIGEKTDESPGPEKVTTTTLKSPDPSLTYTVTTTTVGSTTTTTTTAVPVLSAGGSAGG [r6_923_JUSTAS] | 0.439 ± 0.051 | 0.134 ± 0.4 | 0.261 ± 0.1 |
| SAGGSAGGMTFTFPPGARVRIAIYNKNGELIEEREIDEPGAKITIEKDEETGEWRIVSIELLEPSAGGSAGG [r6_523_TrROS_Hall] | 3.12 ± 0.084 | 3.76 ± 0.05 | 3.45 ± 0.18 |
| SAGGSAGGMTIEEKAEELEEELKKKYPDMEVKVEVDPEKGIVKITITDPKNPGKTTELTFPVEESAGGSAGG [r6_478_JUSTAS] | 4.2 ± 0.45 | 2.23 ± 0.19 | 3.36 ± 0.15 |
| SAGGSAGGMTIEVTFPDGTKLTITLENDGPDTLLATAEVEAPRAGGPSIPKEVAAKLAEELLASSAGGSAGG [r6_234_TrMRF] | 1.19 ± 0.061 | 1.62 ± 0.081 | 1.36 ± 0.12 |
| SAGGSAGGMTKDDIIEKLKKEYPDKDVKVLKVEESVLPSGKILAKVTLEFPEEGKTFEKTFEVESAGGSAGG [r6_572_JUSTAS] | 2.91 ± 0.3 | 2.69 ± 0.13 | 2.71 ± 0.2 |
| SAGGSAGGMTLEIEVNGKKIKIEVIKDKETNRYFVRITVDGKEVLIEADSKEDALKAIKELLKKSAGGSAGG [r6_715_TrROS_Hall] | 2.93 ± 0.059 | 4.42 ± 0.076 | 4.12 ± 0.077 |
| SAGGSAGGMTLTVDLPLPDGGTVRLEVEPLPDGTVRVRLTYPDGRKAEFETSAPVEVLLERAAGSAGGSAGG [r6_808_TrMRF] | 1.61 ± 0.026 | 3.05 ± 0.054 | 2.69 ± 0.086 |
| SAGGSAGGMTPEEERRKKESPVPPVNKVTVKIPVPSSVSEEVAKEIAEKLEKESGAKKVEVILPSAGGSAGG [r6_517_JUSTAS] | 0.257 ± 0.042 | 1.34 ± 0.098 | 1 ± 0.091 |
| SAGGSAGGMTPEELAEQKAEELREKLLAEGRPVSLKITKVTYEVDPKTGTVKVTSDIEIVYGPGSAGGSAGG [r6_454_JUSTAS] | 1.04 ± 0.08 | 0.434 ± 0.29 | 0.986 ± 0.24 |
| SAGGSAGGMTSDKPVLPALIRVYYPNEGREETIPVLLGEDMPLEEALRIARELAHPDAKAEILNSAGGSAGG [r6_440_TrMRF] | -0.183 ± 0.093 | 0.624 ± 0.053 | 0.395 ± 0.06 |
| SAGGSAGGMTTVTYDPSTGVTTVLTPKTDPTSDETSVVTTTVTLPTSPSGGGGTATTTTTTTASSAGGSAGG [r6_952_JUSTAS] | 0.74 ± 0.051 | 1.39 ± 0.024 | 1.18 ± 0.045 |
| SAGGSAGGMVFENLSEEEAKIIAKNIAENFKKKYPNVKIKVEAEVYKLPNPKVIVVIKLEIEEESAGGSAGG [r6_787_TrMRF] | 2.55 ± 0.086 | 3.54 ± 0.07 | 3.09 ± 0.15 |
| SAGGSAGGMVIPFILPGSEFEEEEAIERLLELIETARELNPDTPIIANPLILEVPPPPTETELGSAGGSAGG [r6_728_TrMRF] | 1.36 ± 0.099 | 0.538 ± 0.13 | 1.22 ± 0.28 |
| SAGGSAGGMVIVFDKKNKTIYIYDKKTGKKIEIKVKSIEEAKEAIKKLFPNKKVEIVEVKIFKPSAGGSAGG [r6_286_TrROS_Hall] | 1.43 ± 0.065 | 1.9 ± 0.09 | 1.76 ± 0.2 |
| SAGGSAGGMVKLKVYKIPESVPPELRALLEALVEGEGEVEVEPEEAEALLKLPGIEELEVEELESAGGSAGG [r6_381_TrMRF] | 0.912 ± 0.021 | 1.84 ± 0.059 | 1.59 ± 0.077 |
| SAGGSAGGMVLVLRFPLGEPALIALYDPETGEVHVYDPGTRELLGTFPLPIEDFLELGAEAEPVSAGGSAGG [r6_831_TrMRF] | 0.698 ± 0.051 | 2.2 ± 0.094 | 1.84 ± 0.12 |
| SAGGSAGGMVTFTVEYESDPALLEKLKEELPGVEILEVKREGPKKTITITIKVPSEEKAKKFLSSAGGSAGG [r6_334_JUSTAS] | 0.704 ± 0.086 | 1.16 ± 0.11 | 1 ± 0.12 |
| SAGGSAGGMVTVPVPKDKPLNPVATVKLPDGSTIPAGPVAVDLEKGTATLEVPEPAEVIVEVNPSAGGSAGG [r6_180_JUSTAS] | 0.0542 ± 0.08 | 1.36 ± 0.023 | 1.01 ± 0.037 |
| SAGGSAGGNKIWIPITITFMVPVRKDPDGKPKLSPEDPDRWKPVEFEIPIEIDPDPDNGKIKIWSAGGSAGG [r6_537_TrROS] | 1.5 ± 0.042 | 0.701 ± 0.25 | 1.26 ± 0.24 |
| SAGGSAGGNKPIMVRIKIWHDNGKTRRFFVQIPEGFDDPSELASELAKEFNKQYPNYRIEVEPFSAGGSAGG [r6_132_TrROS] | 2.55 ± 0.052 | 2.86 ± 0.03 | 2.78 ± 0.13 |
| SAGGSAGGNKSYTVIIRFPMKRKEDPDGEDKKPRPVTIEYTVKSPEDANELKNKLKDNGAEIVPSAGGSAGG [r6_141_TrROS] | 0.263 ± 0.15 | 0.698 ± 0.12 | 0.531 ± 0.12 |
